According to PMC4582189:

Key:
[1] = biological target: Human recombinant CD13 (human) (UniProt P15144); test: SPR; Biacore 3000; human recombinant CD13 amine-coupled to a CM5 chip (11,949 RU, 10 mM sodium acetate pH 5.0); analytes in HBS-EP (10 mM HEPES pH 7.4, 150 mM NaCl, 3 mM EDTA, 0.005% P20), 5 µl/min, 5 min injection, 8 min dissociation; 14-3-3ε 10 µM, antibodies 1 µg/ml; kinetics with 0, 5, 7.5, 10, 15, 20 µM 14-3-3ε; blank surface subtracted
[2] = biological target: T1, CD13 on the surface of mouse articular chondrocytes (mouse (endogenous in primary articular chondrocytes)) (UniProt P97449)
T1 sequence: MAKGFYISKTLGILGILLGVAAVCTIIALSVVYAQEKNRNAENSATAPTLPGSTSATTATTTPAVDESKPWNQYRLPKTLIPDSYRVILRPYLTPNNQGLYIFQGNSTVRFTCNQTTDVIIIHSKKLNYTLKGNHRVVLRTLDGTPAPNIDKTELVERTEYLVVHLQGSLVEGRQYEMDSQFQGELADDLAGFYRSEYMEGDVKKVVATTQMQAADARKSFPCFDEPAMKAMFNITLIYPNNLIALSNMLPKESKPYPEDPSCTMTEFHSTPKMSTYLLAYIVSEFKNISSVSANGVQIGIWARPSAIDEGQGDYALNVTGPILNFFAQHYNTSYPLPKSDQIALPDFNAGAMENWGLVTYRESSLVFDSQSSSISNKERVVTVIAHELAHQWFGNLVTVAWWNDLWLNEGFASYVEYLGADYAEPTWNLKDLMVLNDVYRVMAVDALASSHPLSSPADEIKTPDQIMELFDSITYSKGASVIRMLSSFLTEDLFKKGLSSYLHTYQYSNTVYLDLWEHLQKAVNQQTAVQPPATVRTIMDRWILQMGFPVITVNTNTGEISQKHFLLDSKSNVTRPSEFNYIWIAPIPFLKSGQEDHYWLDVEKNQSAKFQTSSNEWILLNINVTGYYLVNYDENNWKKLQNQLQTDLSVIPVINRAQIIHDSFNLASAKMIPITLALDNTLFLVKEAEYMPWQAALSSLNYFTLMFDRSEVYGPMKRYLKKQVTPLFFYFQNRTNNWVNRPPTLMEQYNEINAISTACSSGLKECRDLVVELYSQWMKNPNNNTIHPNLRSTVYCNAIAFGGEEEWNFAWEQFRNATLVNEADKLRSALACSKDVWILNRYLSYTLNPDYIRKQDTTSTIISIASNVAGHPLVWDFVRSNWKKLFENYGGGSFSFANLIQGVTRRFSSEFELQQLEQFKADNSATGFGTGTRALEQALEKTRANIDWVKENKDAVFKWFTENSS

[3] = biological target: T1, CD13 on the surface of mouse articular chondrocytes (mouse (endogenous in primary articular chondrocytes)); remark: listed apart in the source
[4] = biological target: Human recombinant CD13 (human) (UniProt P15144)

UniProt P15144, sequence (P15144 whole entry): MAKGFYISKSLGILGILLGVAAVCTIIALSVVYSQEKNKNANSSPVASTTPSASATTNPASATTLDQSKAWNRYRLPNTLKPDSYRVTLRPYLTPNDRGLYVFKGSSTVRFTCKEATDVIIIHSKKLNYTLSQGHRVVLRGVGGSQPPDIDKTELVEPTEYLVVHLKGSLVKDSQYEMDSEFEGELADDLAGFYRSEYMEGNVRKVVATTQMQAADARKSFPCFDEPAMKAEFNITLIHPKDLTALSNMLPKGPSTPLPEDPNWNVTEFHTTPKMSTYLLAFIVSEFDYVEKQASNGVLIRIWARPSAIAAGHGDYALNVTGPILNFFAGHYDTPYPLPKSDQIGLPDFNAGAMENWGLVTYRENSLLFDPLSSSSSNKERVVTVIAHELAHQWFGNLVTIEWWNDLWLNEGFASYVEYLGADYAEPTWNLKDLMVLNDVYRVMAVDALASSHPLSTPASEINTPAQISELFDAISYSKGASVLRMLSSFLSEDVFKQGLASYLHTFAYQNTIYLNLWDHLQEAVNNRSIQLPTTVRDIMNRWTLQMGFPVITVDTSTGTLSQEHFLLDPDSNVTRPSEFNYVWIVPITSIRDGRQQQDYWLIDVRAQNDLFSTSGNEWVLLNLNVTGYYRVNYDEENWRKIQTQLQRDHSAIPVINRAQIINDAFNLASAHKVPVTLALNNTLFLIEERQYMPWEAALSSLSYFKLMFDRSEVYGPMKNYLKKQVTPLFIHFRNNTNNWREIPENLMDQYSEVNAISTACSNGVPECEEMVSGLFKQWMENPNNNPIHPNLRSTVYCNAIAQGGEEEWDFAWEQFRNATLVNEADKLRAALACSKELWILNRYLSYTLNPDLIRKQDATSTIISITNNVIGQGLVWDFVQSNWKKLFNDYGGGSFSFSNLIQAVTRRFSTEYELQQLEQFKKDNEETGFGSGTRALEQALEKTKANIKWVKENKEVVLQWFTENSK

Kd [1]: 2450 nM
response (resonance units) at 10 µM [1]: 78 RU
decrease of 14-3-3ε (1 µg/ml)-induced MMP-13 mRNA expression (qRT-PCR) in murine chondrocytes by anti-CD13 blocking antibody AB108310, 1 and 5 µg/ml (47% to 88%) [2]: 88%
decrease of 14-3-3ε (1 µg/ml)-induced MMP-13 release (ELISA) in murine chondrocytes by anti-CD13 blocking antibody AB108310, 1 and 5 µg/ml (29% to 32%, P>0.05) [2]: 32%
inhibition of 14-3-3ε (1 µg/ml)-induced MMP-3 mRNA expression (qRT-PCR) in murine chondrocytes by anti-CD13 blocking antibody AB108310, 1 and 5 µg/ml (64% to 90%) [2]: 90%
inhibition of 14-3-3ε (1 µg/ml)-induced MMP-3 protein release (ELISA) in murine chondrocytes by anti-CD13 blocking antibody AB108310, 1 and 5 µg/ml (61% to 87%) [2]: 87%
decrease of 14-3-3ε (1 µg/ml)-induced MMP-13 mRNA synthesis (qRT-PCR) in mouse chondrocytes by the synthetic CD13 peptide EFNpYVW, 0.5 and 5 µg/ml (30% to 56%) [3]: 56%
inhibition of 14-3-3ε (1 µg/ml)-induced MMP-3 mRNA production (qRT-PCR) in mouse chondrocytes by the synthetic CD13 peptide EFNpYVW, 0.5 and 5 µg/ml (48% to 62%) [3]: 62%
decrease of 14-3-3ε-induced MMP-3 mRNA expression (qRT-PCR) in human osteoarthritis chondrocytes (endogenous human CD13) by anti-CD13 blocking antibody SJ1D1, 1 µg/ml [4]: 43%
decrease of 14-3-3ε-induced MMP-3 protein release (ELISA) in human osteoarthritis chondrocytes (endogenous human CD13) by anti-CD13 blocking antibody SJ1D1, 1 µg/ml [4]: 59%
Substance: Recombinant human 14-3-3ε (from UniProt P62258 1-255) (natural protein)
